Measurements taken from patent US20190276796A1.

Columns and labels:
[1] = target: human FcγRIIIA V158 (human) (UniProt P08637); experiment: competition flow cytometry on CHO DG-44 cells expressing human FcγRIIIA V158; competitor 50 nmol/L Alexa Fluor 488 labeled anti-CD70 IgG1
[2] = target: human FcγRIIIA V158 (human) (UniProt P08637); experiment: competition flow cytometry on CHO DG-44 cells expressing human FcγRIIIA V158; competitor Alexa Fluor 488 labeled anti-CD70 IgG1
murine FcγRIV (murine) [3] = experiment: competition flow cytometry on CHO DG-44 cells expressing murine FcγRIV; competitor 200 nmol/L Alexa Fluor 488 labeled anti-CD70 IgG1
murine FcγRIV (murine) [4] = experiment: competition flow cytometry on CHO DG-44 cells expressing murine FcγRIV; competitor Alexa Fluor 488 labeled anti-CD70 IgG1

Chain of human FcγRIIIA V158 (human) (P08637 17-254 F176V): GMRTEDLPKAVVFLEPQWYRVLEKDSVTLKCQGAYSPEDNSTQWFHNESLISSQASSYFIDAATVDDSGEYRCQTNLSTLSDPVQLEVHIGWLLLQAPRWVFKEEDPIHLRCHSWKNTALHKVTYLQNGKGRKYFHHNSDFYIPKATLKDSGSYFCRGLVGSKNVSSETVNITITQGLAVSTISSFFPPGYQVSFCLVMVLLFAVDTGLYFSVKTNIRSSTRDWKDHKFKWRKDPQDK
Chain of murine FcγRIV (murine) (A0A0B4 entry or part of it limits assumed): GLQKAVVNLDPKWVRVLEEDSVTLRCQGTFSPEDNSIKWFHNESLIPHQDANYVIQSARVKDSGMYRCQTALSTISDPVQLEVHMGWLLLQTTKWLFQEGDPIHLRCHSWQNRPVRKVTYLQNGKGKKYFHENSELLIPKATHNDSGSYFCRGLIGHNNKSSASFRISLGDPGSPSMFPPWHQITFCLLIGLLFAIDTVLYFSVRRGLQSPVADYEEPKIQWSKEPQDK

- EC50 [1]: 0.00799 µM
- fold difference in EC50 against the parent antibody [2]: 14 fold
- EC50 (murine FcγRIV (murine) [3]): 0.0208 µM
- fold difference in EC50 against the parent (control) anti-CD70 antibody (murine FcγRIV (murine) [4]): 18 fold
Substance: h1F6 antibody from host cells cultured in the presence of 50 µM alkynyl fucose peracetate (non-core fucosylated anti-CD70 antibody)
